Results published in patent EP0730609B1.

Biological target: IL4 receptor on the gibbon cell line MLA (gibbon)
Assay: displacement of 125I-IL4 (83 pM added) from gibbon MLA cells

recombinant human IL4 (E. coli, non-glycosylated) (from UniProt P05112 25-153) (ligand)
IC50: 0.022 nM
